# Patent US20030130166A1, “Polynucleotide encoding a human junctional adhesion protein (JAM2)” (priority 1999, published 2003)
# Bridges are numbered along the chain shown (N, C = ends). Where no end group is shown, it is not given here.
# T1: human JAM3 (Junctional Adhesion Molecule 3), endogenous on HSB T cells (human, UniProt Q9BX67 32-310)
# T1 construct: whole, on cells; also called cell surface JAM3; 43 kDa protein
# T1 sequence (looked up): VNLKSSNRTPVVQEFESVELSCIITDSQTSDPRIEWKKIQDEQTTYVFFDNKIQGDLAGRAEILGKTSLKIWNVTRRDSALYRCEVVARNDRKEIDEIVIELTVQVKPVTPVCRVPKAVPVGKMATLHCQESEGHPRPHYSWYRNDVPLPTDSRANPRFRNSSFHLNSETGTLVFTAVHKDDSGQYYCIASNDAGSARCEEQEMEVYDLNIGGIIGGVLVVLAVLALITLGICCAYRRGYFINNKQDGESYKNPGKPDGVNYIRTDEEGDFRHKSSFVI
# B1: JAM2-Fc (extracellular domain of human JAM2 fused to the constant region of mouse IgG-2a, secreted from Sf21 insect cells) (Fc fusion)
# chain: FSAPKDQQVVTAVEYQEAILACKTPKKTVSSRLEWKKLGRSVSFVYYQQTLQGDFKNRAEMIDFNIRIKNVTRSDAGKYRCEVSAPSEQGQNLEEDTVTLEVLVAPAVPSCEVPSSALSGTVVELRCQDKEGNPAPEYTWFKDGIRLLENPRLGSQSTNSSYTMNTKTGTLQFNTVSKLDTGEYSCEARNSVGYRRCPGKRMQVDDLNIS
# notes: In the assays it was captured on 96 well plates by goat anti-mouse IgG2a; also called recombinant JAM2; JAM2 extracellular domain; not shown: constant region of mouse IgG-2a (mIgG2a) from the modified pFastBac1 vector
# How the values were obtained:
# [1] = molecular target: T2, α4β1 integrin, endogenous on HSB T cells (UniProt P13612 34-1032; P05556 21-798, limits assumed); assay: inhibition of Mn-enhanced adhesion of calcein-loaded HSB cells to captured JAM2-Fc (FIG. 12B)
# T2 construct: whole, on cells; also called α4 integrin; alpha 4 integrin
# Experimental: (§1) JAM2-Fc adhesion to T cell lines was performed by capture of fusion protein by goat anti-mouse coated 96 well plates as described in Cunningham et al., J. Biol. Chem., 275:34750-34756 (2000). The HSB cells were loaded with calcien-AM (Molecular Probes Inc., Eugene Oreg.) and re-suspended in Tris Buffered Saline (TBS) with or without the addition of 1 mM MnCl₂. Binding to mouse IgG2a was used to subtract background. Soluble JAM3 was generated from a JAM3-Fc fusion that was digested with thrombin and purified to remove the Fc component. Neutralizing anti-JAM3 polyclonal serum was generated in mice using human JAM3 extracellular domain as immunogen. […] Following adhesion for 90 minutes at 37° C., wells were washed 3 times at room temperature. Adhered cells were lyzed and fluorescence quantified in a Cytofluor with excitation at 485/20 nm and emission at 530/25.
# [2] = molecular target: T1, human JAM3 (Junctional Adhesion …); assay: adhesion of calcein-loaded HSB cells to Fc fusion protein
# [3] = system: HSB cells; assay: In vitro adhesion assay, calcein loaded cells on captured Fc fusion protein; type: cell-based
# Experimental: (§2) Biol. 52:85 (1992), herein incorporated by reference.
# (§3) The capacity of JAM2 extracellular domain to adhere to various leukocyte cell lines according to a previously established in vitro binding assay performed under static conditions was next examined (see Todderud, G., J. Leukoc, Biol. 52:85(1992)). Calcein loaded cells were allowed to interact with JAM2-Fc captured in 96 well plates in binding buffer (hereinafter “BB”) which contained TBS plus 1 mM calcium, magnesium and manganese. Non-specific binding of cells to captured mIgG2a was determined simultaneously and subtracted. […] Binding to the erythroleukemic K562 cell lines was non-existent.
# [4] = molecular target: T1, human JAM3 (Junctional Adhesion …); assay: adhesion of calcein-loaded HSB cells to captured JAM2-Fc in TBS+Ca/Mg/Mn (FIG. 7)
# Experimental: In vitro adhesion assays were performed in 96 well plates essentially as described in Todderud, G., J. J. Leukoc. Biol. 52:85 (1992), herein incorporated by reference. Briefly, 50 μl of goat anti-mouse IgG2a was coated at 5 μg/ml in PBS and used to capture 4.8 pmoles of JAM2-Fc or mIgG2a (control). Various leukocyte cell lines i.e. T lymphocytes, HSB, HPB-ALL; B lymphocytes, RAMOS; monocytic cells, HL60, THP-1, and the erythroleukemic, K562 lines were labeled with calcein (Molecular Probes Inc., Eugene, Oreg.) at 50 μg/ml for 25 minutes at 37° C. with 250,000 cells/well in binding buffer that consisted of Tris buffered saline plus 1 mM each of CaCl₂, MgCl₂ and MnCl₂. Wells were washed 3×, lysed with 50 mM Tris (pH 7.5), 5 mM EDTA, 1% NP40, and fluorescence read in a Cytofluor with excitation at 485/20 nm and emission at 530/25 nm. Specific binding was calculated as fluorescence with JAM2-Fc minus fluorescence with mIgG2a. For antibody inhibition, protein captured on wells or HSB cells were incubated for 30 min at RT in binding buffer with 1:100×dilution of preimmune (normal mouse serum) or anti-JAM2 mouse polyclonal serum. […] Overall differences among experimental groups for each parameter were first assessed by one-way analysis of variance (ANOVA) and individual pairwise group comparisons were analyzed by Fisher's protected least significance difference (PLSD) post hoc test. […]
# [5] = system: K562 cell lines; assay: In vitro adhesion assay, calcein loaded cells on captured Fc fusion protein; type: cell-based; details: binding buffer: TBS plus 1 mM calcium, magnesium and manganese; FIG. 7
# Experimental: as §2, §3
# [6] = system: HPB-ALL; assay: as above; type: cell-based; details: binding buffer: TBS plus 1 mM calcium, magnesium and manganese; FIG. 7
# Experimental: as §2, §3
# [7] = molecular target: B1; assay: the inventors' reading of the inhibition of HSB adhesion to captured JAM2-Fc by soluble JAM3 (FIG. 13A)
# Experimental: as §1
# The inventors believe that soluble JAM3 ectodomain would bind to the JAM2 on the well surface and prevent its interaction with JAM3 on the HSB cell surface. It is concluded that under these conditions, that JAM2 is unable to engage α4 integrin. Therefore, a specific interaction of JAM2 with cell-surface bound JAM3 is necessary before JAM2 can bind α4 integrin. Likewise, if neutralizing anti-JAM3 antibodies are used to prevent JAM2 binding to cell surface JAM3, then JAM2 is also unable to engage integrin (FIG. 13B).
# T2 sequence (P13612 34-1032 limits assumed, chain 1 of 2): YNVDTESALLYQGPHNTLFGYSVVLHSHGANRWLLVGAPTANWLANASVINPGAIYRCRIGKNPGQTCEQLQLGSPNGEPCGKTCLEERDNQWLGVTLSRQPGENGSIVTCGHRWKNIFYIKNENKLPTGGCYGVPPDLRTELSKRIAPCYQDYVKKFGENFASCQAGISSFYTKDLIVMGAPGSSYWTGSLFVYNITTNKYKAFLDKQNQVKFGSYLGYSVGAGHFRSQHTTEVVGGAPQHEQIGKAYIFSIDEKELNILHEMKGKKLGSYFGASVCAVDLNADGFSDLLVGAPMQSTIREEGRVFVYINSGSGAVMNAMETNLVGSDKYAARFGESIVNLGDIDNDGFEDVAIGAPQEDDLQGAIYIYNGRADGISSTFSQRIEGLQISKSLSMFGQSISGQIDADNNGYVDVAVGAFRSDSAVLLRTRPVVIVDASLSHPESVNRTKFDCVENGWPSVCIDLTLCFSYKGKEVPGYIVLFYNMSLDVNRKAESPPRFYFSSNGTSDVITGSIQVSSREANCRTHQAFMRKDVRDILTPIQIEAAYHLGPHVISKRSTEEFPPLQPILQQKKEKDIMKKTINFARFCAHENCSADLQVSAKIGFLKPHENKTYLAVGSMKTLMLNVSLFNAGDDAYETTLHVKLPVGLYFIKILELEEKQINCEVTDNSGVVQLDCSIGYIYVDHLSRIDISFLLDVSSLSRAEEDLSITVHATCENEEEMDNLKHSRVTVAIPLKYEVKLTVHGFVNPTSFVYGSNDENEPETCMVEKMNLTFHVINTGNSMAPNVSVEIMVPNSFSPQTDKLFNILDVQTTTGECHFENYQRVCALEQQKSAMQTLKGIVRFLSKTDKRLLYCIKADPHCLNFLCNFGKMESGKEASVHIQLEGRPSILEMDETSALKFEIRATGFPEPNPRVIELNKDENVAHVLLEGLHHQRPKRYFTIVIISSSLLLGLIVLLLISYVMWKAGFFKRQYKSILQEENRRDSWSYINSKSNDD
# T2 sequence (P05556 21-798 limits assumed, chain 2 of 2): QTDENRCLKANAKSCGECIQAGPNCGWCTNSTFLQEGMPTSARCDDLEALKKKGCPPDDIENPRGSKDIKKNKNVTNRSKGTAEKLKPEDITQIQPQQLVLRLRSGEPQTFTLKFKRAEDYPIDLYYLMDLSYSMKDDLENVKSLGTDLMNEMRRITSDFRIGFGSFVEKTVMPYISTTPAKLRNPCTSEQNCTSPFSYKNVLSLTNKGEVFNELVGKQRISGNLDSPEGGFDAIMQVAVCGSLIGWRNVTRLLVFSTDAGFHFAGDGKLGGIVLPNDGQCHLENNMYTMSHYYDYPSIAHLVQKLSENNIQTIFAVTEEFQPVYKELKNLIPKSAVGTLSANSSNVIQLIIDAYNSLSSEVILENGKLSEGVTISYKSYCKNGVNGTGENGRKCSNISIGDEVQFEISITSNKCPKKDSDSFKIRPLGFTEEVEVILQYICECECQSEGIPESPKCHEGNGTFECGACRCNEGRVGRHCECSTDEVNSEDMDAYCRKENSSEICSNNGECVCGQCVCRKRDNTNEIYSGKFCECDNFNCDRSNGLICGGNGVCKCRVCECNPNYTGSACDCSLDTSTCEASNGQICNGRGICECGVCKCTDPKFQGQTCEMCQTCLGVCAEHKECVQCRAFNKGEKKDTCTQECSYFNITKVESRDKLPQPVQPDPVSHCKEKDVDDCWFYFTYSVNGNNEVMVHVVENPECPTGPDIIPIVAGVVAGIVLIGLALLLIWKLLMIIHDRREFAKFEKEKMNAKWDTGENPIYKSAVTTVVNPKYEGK
molecule,measurement,setting,value
"CWLDVC (bridge 1-6; also: cyclic hexapeptide, bond type between C* residues not given here) [TBC 772, cyclic hexapeptide (C*WLDVC*), antagonist of alpha 4 integrins]",IC50,[1],~60 nM
"human JAM1-Fc (Fc fusion, UniProt Q9Y624 28-238, looked up, not shown: Fc part not described for this construct) SVTVHSSEPEVRIPENNPVKLSCAYSGFSSPRVEWKFDQGDTTRLVCYNNKITASYEDRVTFLPTGITFKSVTREDTGTYTCMVSEEGGNSYGEVKVKLIVLVPPSKPTVNIPSSATIGNRAVLTCSEQDGSPPSEYTWFKDGIVMPTNPKSTRAFSNSSYVLNPTTGELVFDPLSASDTGEYSCEARNGYGTPMTSNAVRMEAVERNVGV",binding result,[2],no binding
"human JAM1-Fc: Fc fusion of JAM1, the human homologue of mouse JAM (protein, left off: a dimerising Fc or GST, Fc fusion of JAM1, the human homologue of mouse JAM) SVTVHSSEPEVRIPENNPVKLSCAYSGFSSPRVEWKFDQGDTTRLVCYNNKITASYEDRVTFLPTGITFKSVTREDTGTYTCMVSEEGGNSYGEVKVKLIVLVPPSKPTVNIPSSATIGNRAVLTCSEQDGSPPSEYTWFKDGIVMPTNPKSTRAFSNSSYVLNPTTGELVFDPLSASDTGEYSCEARNGYGTPMTSNAVRMEAVERNVGV",binding of calcein loaded HSB cells,[3],unable to bind
B1,binding result,[4],binds
"JAM2-Fc: extracellular domain of human JAM2 secreted from Sf21 insect cells as a fusion to mIgG2a (protein, left off: a dimerising Fc or GST, extracellular domain of human JAM2 secreted from Sf21 insect cells as a fusion to mIgG2a) FSAPKDQQVVTAVEYQEAILACKTPKKTVSSRLEWKKLGRSVSFVYYQQTLQGDFKNRAEMIDFNIRIKNVTRSDAGKYRCEVSAPSEQGQNLEEDTVTLEVLVAPAVPSCEVPSSALSGTVVELRCQDKEGNPAPEYTWFKDGIRLLENPRLGSQSTNSSYTMNTKTGTLQFNTVSKLDTGEYSCEARNSVGYRRCPGKRMQVDDLNIS",binding to K562 cells,[5],non-existent
same,capture of HPB-ALL cells,[6],quite efficiently
same,capture of HSB cells,"[3]; binding buffer: TBS plus 1 mM calcium, magnesium and manganese, FIG. 7",quite efficiently
"N-terminal Ig-fold of JAM2: first Ig domain of JAM2 synthesized as a secreted protein in insect cells (protein, left off: a dimerising Fc or GST, first Ig domain of JAM2 synthesized as a secreted protein in insect cells) FSAPKDQQVVTAVEYQEAILACKTPKKTVSSRLEWKKLGRSVSFVYYQQTLQGDFKNRAEMIDFNIRIKNVTRSDAGKYRCEVSAPSEQGQNLEEDTVTLEV",adhesion to HSB cells,"[3]; TBS and TBS+Mn, FIG. 10",capable of adhering to HSB cells
"soluble JAM3 (JAM3 ectodomain from a JAM3-Fc fusion digested with thrombin and purified to remove the Fc) (receptor, human, UniProt Q9BX67 32-241, looked up, extracellular domain; It was added at a 10-fold molar ratio; also called soluble JAM3 ectodomain) VNLKSSNRTPVVQEFESVELSCIITDSQTSDPRIEWKKIQDEQTTYVFFDNKIQGDLAGRAEILGKTSLKIWNVTRRDSALYRCEVVARNDRKEIDEIVIELTVQVKPVTPVCRVPKAVPVGKMATLHCQESEGHPRPHYSWYRNDVPLPTDSRANPRFRNSSFHLNSETGTLVFTAVHKDDSGQYYCIASNDAGSARCEEQEMEVYDLN",binding result,[7],binds
